Laboratory results taken from patent US6710030B1, “Contortrostain (CN) and methods for its use in preventing metastasis and other conditions” (University of Southern California, priority 1993, dated 2004).

System: MDA-MB-435 cells
Assay: Phosphotyrosine immunoblot, MDA-MB-435 cells
Type: cell-based, human
Description: Cell culture, preparation and stimulation—T24 cells were maintained in RPMI 1640 medium containing 5% fetal bovine serum, and MDA-MB-435 and 293 cells were maintained in Dulbecco's modified Eagle's medium with 10% serum at 37° C. in 5% CO2. Cells were washed with phosphate-buffered saline (PBS) and starved in the appropriate serum-free medium for 6 h at 37° C. Cells were detached by brief treatment with 0.05% trypsin/0.02% EDTA in PBS and collected by centrifugation, resuspended in soybean trypsin inhibitor (1 mg/ml in serum-free medium), and washed in 2% bovine serum albumin/serum-free medium. Cells were maintained in suspension for 1 h in 2% bovine serum albumin/serum-free medium at 37° C. with end-over-end agitation. Quiescent cells (3×10^6/ml) were treated with disintegrins or other reagents while in suspension, or were allowed to adhere to Matrigel (Becton Dickinson, Bedford, Mass.) diluted 1:100 with serum-free medium during treatment.
Lysate preparation and immunoprecipitation—Suspended and adherent cells were washed twice with cold PBS and lysed in cold lysis buffer (50 mM Tris, pH 8.0, 150 mM NaCl, 1% Nonidet P-40, 0.5% deoxycholate, 0.1% SDS, protease inhibitor cocktail, 1 mM sodium pyrophosphate, 1 mM sodium orthovanadate, 50 mM sodium fluoride). After 10-15 min incubation on ice, insoluble material was removed by centrifugation at 14,000 RPM in a microcentrifuge for 15 min. Supernatants were collected and total protein concentrations standardized by the BCA protein assay (Pierce, Rockford, Ill.). Immunoprecipitation was carried out by incubating whole cell lysates (200 μg total protein) with 1.25 μg anti-FAK or anti-CAS mAb 4-6 h at 4° C. followed by 20 μl protein G-agarose overnight at 4° C. Immunoprecipitates were washed 4 times in lysis buffer without inhibitors and dissociated by adding SDS-PAGE sample buffer and boiling 5 min. Whole cell lysates (30 μg total protein) or immunoprecipitates were resolved by 7.5% SDS-polyacrylamide gel electrophoresis and transferred to nitrocellulose membranes.
Immunoblotting—Membranes were blocked with 5% nonfat milk/Tris-buffered saline/0.1% Tween 20 (blocking buffer) 1 h at room temperature or overnight at 4° C. Primary antibody incubations were performed in blocking buffer for 1 h at room temperature. After washing in Tris-buffered saline/0.1% Tween 20, membranes were incubated with horseradish peroxidase-conjugated secondary antibody in blocking buffer 1 h at room temperature. Membranes were washed extensively. Inimunoblots were developed using Super Signar West Pico Chemiluminescent Substrate from Pierce. Densitometry was performed using UN-SCAN-IT™, software (Silk Scientific, Orem, Utah))

B1: flavoridin: monomeric disintegrin obtained from Sigma (protein)
chain: GEECDCGSPSNPCCDAATCKLRPGAQCADGLCCDQCRFKKKRTICRIARGDFPDDRCTGLSNDCPRWNDL
1 μM, added simultaneously, 10 min
  effect on contortrostatin (10 nM)-induced tyrosine phosphorylation: completely abrogated
Concentrations up to 1 μM
  effect alone on tyrosine phosphorylation: no effect on tyrosine phosphorylation

B2: monomeric vitronectin: soluble monomeric vitronectin (protein, UniProt P04004 20-478, looked up)
Vitronectin: DQESCKGRCTEGFNVDKKCQCDELCSYYQSCCTDYTAECKPQVTRGDVFTMPEDEYTVYDDGEEKNNATVHEQVGGPSLTSDLQAQSKGNPEQTPVLKPEEEAPAPEVGASKPEGIDSRPETLHPGRPQPPAEEELCSGKPFDAFTDLKNGSLFAFRGQYCYELDEKAVRPGYPKLIRDVWGIEGPIDAAFTRINCQGKTYLFKGSQYWRFEDGVLDPDYPRNISDGFDGIPDNVDAALALPAHSYSGRERVYFFKGKQYWEYQFQHQPSQEECEGSSLSAVFEHFAMMQRDSWEDIFELLFWGRTSAGTRQPQFISRDWHGVPGQVDAAMAGRIYISGMAPRPSLAKKQRFRHRNRKGYRSQRGHSRGRNQNSRRPSRATWLSLFSSEESNLGANNYDDYRMDWLVPATCEPIQSVFFFSGDKYYRVNLRTRRVDTVDPPYPRSIAQYWLGCPAPGHL
10 μg/ml, data not shown
  stimulation of tyrosine phosphorylation: failed to stimulate tyrosine phosphorylation
